The assay concerns the target both RasaN and SLP-76. Briefly: supernatant depletion assay (pull-down titration); biotinylated SH2 domains on streptavidin-coated DynaBeads, washed once and serially diluted in 1x PBS; ADAP at 8 nM (PBS with 0.1% E. coli extract), 10 min at RT; unbound ADAP in the supernatant read by in-gel fluorescence; Kd estimated from the plot.

Drawing on PMC3858276, this text covers Kd for one molecule.

The Kd is a measure of binding affinity in units of concentration.

B1: phosphorylated SNAP-ADAP fusion protein (ADAP amino acids 570-690) (domain or fragment)
chain: DYDSLKLKKDSLGAPSRPIEDDQEVYDDVAEQDDISSHSQSGSGGIFPPPPDDDIYDGIEEEDADDGFPAPPKQLDMGDEVYDDVDTSDFPVSSAEMSQGTNVGKAKTEEKDLKKLKKQEK
modifications: phosphotyrosine (in vitro phosphorylation by Fyn kinase, approx. 90% of each phosphorylation site; sites in Table S1); BG-647 dye on the SNAP-tag
With B1, the Kd is 60 to 90 nM.
